Data on seven molecules can be found in patent publication US20230365705A1 (DYNAMICURE BIOTECHNOLOGY, published 2023).

For assay [1], the target named is T1, Human CD93 on cells (human CD93 expressing CHO cells; HUVEC, U937 and KG1a cells) (human, UniProt Q9NPY3 22-652).
T1 construct: whole, on cells; also called hCD93 expressing CHO cells; hCD93 CHO cells
T1 sequence (looked up): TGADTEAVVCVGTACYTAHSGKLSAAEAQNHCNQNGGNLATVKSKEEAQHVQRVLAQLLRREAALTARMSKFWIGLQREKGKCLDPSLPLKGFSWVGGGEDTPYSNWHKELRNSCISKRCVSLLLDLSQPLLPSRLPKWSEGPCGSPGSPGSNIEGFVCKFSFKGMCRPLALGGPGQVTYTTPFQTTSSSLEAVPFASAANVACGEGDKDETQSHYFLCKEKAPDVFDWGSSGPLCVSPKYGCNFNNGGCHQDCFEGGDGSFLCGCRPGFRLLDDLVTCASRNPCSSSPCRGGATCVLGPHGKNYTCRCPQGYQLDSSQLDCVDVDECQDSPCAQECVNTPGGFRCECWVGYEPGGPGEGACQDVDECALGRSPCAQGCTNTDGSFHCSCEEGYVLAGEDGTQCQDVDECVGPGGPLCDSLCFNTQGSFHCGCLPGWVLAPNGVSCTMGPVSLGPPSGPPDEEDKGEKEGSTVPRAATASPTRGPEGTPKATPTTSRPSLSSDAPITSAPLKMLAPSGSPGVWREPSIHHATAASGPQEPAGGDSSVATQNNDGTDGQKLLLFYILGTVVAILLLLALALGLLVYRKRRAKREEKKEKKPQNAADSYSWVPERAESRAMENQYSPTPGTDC
Put plainly: flow cytometry, CD93 expressing CHO cells, antibody 10 ug/ml, FITC-A. The protocol:
Human CD93 expressing CHO cells were detached by incubation with TrypLE reagents (Thermos Fisher), which preserves the integrity of CD93 on the cell surface. […] After washing with FACS buffer twice, the samples were acquired in NovoCyte Flow Cytometer and analyzed by NovoExpress software.
(Flow cytometry measures light scatter and fluorescence of single cells or particles in a stream.)

Assay [2] concerns the target T2, Human CD93 recombinant protein (Sino Biological Inc, Catalog #12589-H08H) (human, UniProt Q9NPY3 22-580).
T2 construct: Biotinylated (EZ-LINK NHS-PEG4 biotin) in the BLI assays; also called hCD93; His-tagged human CD93
T2 sequence (looked up): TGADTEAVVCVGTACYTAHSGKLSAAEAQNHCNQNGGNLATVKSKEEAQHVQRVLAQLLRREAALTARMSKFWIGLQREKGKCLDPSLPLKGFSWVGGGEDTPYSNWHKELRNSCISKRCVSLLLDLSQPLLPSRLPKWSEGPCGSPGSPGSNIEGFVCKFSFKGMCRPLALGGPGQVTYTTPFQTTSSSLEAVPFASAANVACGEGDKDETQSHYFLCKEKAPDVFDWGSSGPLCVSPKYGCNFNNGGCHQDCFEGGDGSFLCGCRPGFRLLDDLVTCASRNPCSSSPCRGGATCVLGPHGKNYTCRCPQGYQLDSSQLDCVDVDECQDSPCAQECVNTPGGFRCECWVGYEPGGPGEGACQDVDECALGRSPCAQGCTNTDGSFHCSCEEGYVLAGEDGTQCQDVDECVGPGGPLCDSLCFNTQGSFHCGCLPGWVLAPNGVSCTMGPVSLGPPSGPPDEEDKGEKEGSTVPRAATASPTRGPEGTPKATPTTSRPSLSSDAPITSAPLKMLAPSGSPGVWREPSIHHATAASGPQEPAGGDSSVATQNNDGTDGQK
The assay is described as follows: BLI (Octet QKe), biotinylated human CD93 on streptavidin biosensors. The method, then: The binding affinity of anti-CD93 antibodies were determined with bio-layer interferometry using Octet QKe (Fortebio). Human CD93 recombinant protein (Sino Biological Inc, Catalog #12589-H08H) or cynomolgus CD93 protein (made in-house) were biotinylated using EZ-LINK NHS-PEG4 biotin (Thermo Fisher Scientific). Streptavidin biosensors (Fortebio) were used to load biotinylated CD93 protein (300 seconds in 5 μg/ml). The baseline was stabilized for 60 seconds in 1× kinetics buffer (Fortebio) before anti-CD93 antibodies at a serial dilution were allowed to associate for 300 seconds with captured protein. Then the sensors were dissociated in 1× kinetics buffer for 600 seconds.

B1: 19B5 (antibody, V domains shown)
VH: DVNLVESGGGLVKLGGSLKLSCAASGFTFSNYYMSWVRQSPEKRLEWVATISNNGDSTYYLDTVKGRFTISRDSAENTLYLQMSSLISEDTAVYYCTRVGTGFTYWGQGTLVTVSA
VL: DIVLTQSPATLSVTPGDSVSLSCRASQSINNYLHWYQQRSHESPRLLIKFASQSISDIPSRFSGSGSGTDFTLSINSIETEDFGMYFCQQSNSWPLTFGAGTKLELK
notes: Mouse hybridoma monoclonal antibody
For B1, the binding result in assay [1] and in assay [2] was “binds” throughout.

B2: 17E6 (antibody, V domains shown)
VH: EVQLQQSGPELVKPGASVKMSCKASGYTFTSYVIHWVKQKPGQGLEWIGYINPYSDYTQYNEKFKGKATLTSDKSSSTAYMELSSLTSEDSAVYSCARRADGNPYAMDYWGQGTSVTVSS
VL: DIVMTQSHKFMSTSVGDRVSTTCKASQDVSTAVVWYQQKPGQSPKLLIYSASYRYTGVPDRFTGSGSGTDFTFTITSVQAEDLAVYYCQQHYSTPFTFGSGTKLEIK
notes: as for B1
As to B2, the binding result in assay [1] and in assay [2] was “binds” in each case.

B3: 16G9 (antibody, V domains shown)
VH: EVQLQQSGPELVKPGASVKMSCKASGYTFTDYYMNWVKQSHGKSLEWIGRVNPNNGGKTYNQKFKGKATLTVDKSLSTAYMQLNSLTSEDSAVYYCARWRLRPVDYGMDYWGQGTSVTVSS
VL: DIVLTQSPASLAVSLGQRATISCRASQSVSTSSYSYMHWYQQKPGQPPKLLIKYASNLESGVPARFSGSGSGTDFTLNIHPVEEEDTATYYCQHSWEIPFTFGSGTKLEIK
notes: as for B1
On to B3, for which the binding result in assay [1] and in assay [2] was “binds” in each case.

B4: 12H4 (antibody, V domains shown)
VH: EVQLQQSGPELVKPGASVKVSCKASGYTFTDYYIHWVKQRPGQGLEWIGEIYPGSDDAYYNEKFKGKATLTADKSSSTAYMQLSSLTSEDSAVYFCTRETTATAYWGQGTLVTVSA
VL: QIVLTQSPAIMSASPGEKVTITCSASSSVSLIYWFQQKPGTSPKLWIYSTSNLASGVPARFSGSGSGTSYSLTISRMEAEDAATYYCQQRSGYPPTFGGGTKLEIK
notes: as for B1
For B4, the binding result in assay [1] and in assay [2] was “binds” in each case.

B5: 16B6 (antibody, V domains shown)
VH: QVQLQQSGPELVKPGASVKISCKASGYAFSRSWMNWVKQRPGKGLEWIGWIYPGDGDTNYNGKFKGKATLTADKSSSTAYMQLSSLTSEDSAAYFCARSATLPYWYFDVWGAGTTVTVSS
VL: DIKMTQSPSSMYASLGERVTITCKASQDIKSYLSWYQQKPWKSPKTLIYYATNLADGVPSRFSGSGSGQDYSLTISSLGSDDTATYYCLQHVESPWTFGGGTKLEIK
notes: as for B1
As to B5, the binding result in assay [1] and in assay [2] was “binds” in each case.

B6: 5H9 (antibody, IgG2a, V domains shown)
VH: QVQLQQSGPDLVKPGASVKISCKASGYAFSTYWMNWVKQRPGKGLEWIGRIFPGDGDANYNGKFKGKATLTADKSSSTAYMQLSSLTSEDSAVYFCTRTGAAYDFDPFPYWGQGTLVTVSA
VL: DIVMTQAAFSNPVTLGTSASISCSSSKSLLHSNGVTYLYWYLQRPGQSPQLLIYRMSNLASGVPDRFSGSGSGTDFTLRISRVEAEDVGIYYCAQMLERPFTFGSGTKLEIK
notes: also called 5H9 mIgG2a
Regarding B6, the binding result in assay [1] and in assay [2] was “binds” in each case.

B7: 17A7 (antibody, V domains shown)
VH: QVQLQQSGPELVKPGASVKISCKGSGYAFSTYWMNWVKQRPGKGLEWIGRIFPGDGDTDYDGKFKGKATLTADKSSNTAYMQLSSLTSEDSAVYFCARTGAAYEFDPFPYWGQGTLVTVSA
VL: DIVMTQAAFSNPVTLGTSASISCSSTKSLLHSSGITYLYWYLQRPGQSPQLLIYRMSNLASGVPDRFSGSGSGTDFTLRISRVEAEDVGVYYCAQMLERPFTFGSGTKLEIK
notes: as for B1
For the molecule B7, the binding result in assay [1] and in assay [2] was “binds” throughout.
